# Results from the supplement of paper PMC9170038.
# System: MS2 coat protein
# Experiment: apparent KD of MS2 coat protein; higher = weaker reporter binding
# Details: Eterna round: R107
# Method: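 RNA-MaP round R107: designed RNA switches with theophylline, tryptophan, arginine or FMN aptamers are transcribed on-chip within common flanks. They are titrated with SNAP-549-labelled MS2 coat protein in RNA-MaP buffer (100 mM Tris pH 7.5, 80 mM KCl, 4 mM MgCl2), without ligand or with the indicated ligand. Median apparent KD per design.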
# [1] = input ligand: theophylline 20 uM
# [2] = input ligand: theophylline 2 mM
# [3] = input ligand: tryptophan 2.4 mM
Sequence,apparent KD of MS2 coat protein (input ligand: arginine 13.2 mM),apparent KD of MS2 coat protein (input ligand: none),apparent KD of MS2 coat protein [1],apparent KD of MS2 coat protein [2],apparent KD of MS2 coat protein [3]
ACUAGUUGUGCAGAUACCAGAUAUGAGGAUCACCCAUAUUUGGGAUGUUCGCAUCUUCCUGUCCCUUGGCAGCUGUACAUCUAGA [Omei Theo B Exc v7],37.9 nM,37.3 nM,86.7 nM,107 nM,33.9 nM
ACUUGAUACUGAAGGAGCGUCGGAUAAACUCGCACAUGAGGAUCACCCAUGUAUAUGAAUCGGCAGGUAGGUCGCAGUAUCGAGU [#21 Same State - Arginine B],14.8 nM,15.6 nM,20.4 nM,17.1 nM,15.4 nM
AGAAAGAAACAAAACUCAAGGAGAACCGAAGGAGCGGCGAAAGAGCCAGGUAGGUCGCGGUCCUCAACAUGAGGAUCACCCAUGU,61.6 nM,104 nM,83.5 nM,186 nM,96.6 nM
AGAACAAAACUAAAUAAACAACUGGGUGAUACCAGCACAUGUGCGUGCCCUUGGCAGCAUCCGGCCACAUGAGGAUCACCCAUGU [Inarar],42.6 nM,,95.6 nM,,62.7 nM
AGACAUGAGGAUCACCCAUGUAGCAUGGAUACCAGAUGCAGAUUUAUCCCUUGGCAGCUGUGGUAAAGUGAUGCAUUGCUCCUAG [Exclusion - Theophylline A (Freestyle 6)],18.8 nM,22.6 nM,31 nM,27.1 nM,23.8 nM
AGACAUGAGGAUCACCCAUGUAGUAUGGAUACCAGAUCCAGAUUUAUCCCUUGGCAGCUGUGGUACAGCGAUGGAUUGCUCCUAG [Exclusion - Theophylline A (Freestyle 10)],33.5 nM,,48.5 nM,,39.2 nM
AGACGAGCAAUCAACGGGCGUUUCGUGACGCGAGGACCGGUACGGCCGCCACUCGAGUCUGGACAUGAGGAUCACCCAUGUUAUG [theeternabot_exclusion_MS2_Trp_A_46],32.8 nM,22 nM,23 nM,41 nM,22.2 nM
AGACUUCGCAUAGGAAAACUAUGUGAAGUCCGAGGACCGGUACGGCCGCCACUCGUCCUCACAUGAGGAUCACCCAUGUAAAUAA [#OpenEnded 2 #CuTurnoff #Tail],22.7 nM,,,24.5 nM,
AGAGCAUUGACGGCCGCCACUCAUGUCACAUGAGGAUCACCCAUGUGAUGGGUGAUAGCCCGGUCGAGGACCGGGUCAAUGCUCA [Omei Tryp SS B v5],14.3 nM,,29.7 nM,20.6 nM,
AGAGUCUAGUCGGCCGCCACUCAUGUCCGAAGGACAUGAGGAUCACCCAUGUACCAAUGGUACAUGAGGACCGGGACUGGACUCA [Omei Tryp B SS C v3],34.5 nM,39.9 nM,98.3 nM,559 nM,7.34 nM
AGCACUGUGACGGCCGCCACUAUAUUAGGGUGGUAAGGUUCAUAAAUACAUGAGGAUCACCCAUGUAGGACCGGGUCUCAGUGCA [Omei Trp Exc B A v2],11.8 nM,12.6 nM,11 nM,13.5 nM,17.1 nM
AGCCCGGGAGCGGCCGCCACUGGAGGCUGAGCGCGACAUGAGGAUCACCCAUGUGUGCCCGGCGUUAGGACCGGGCUCGCGUGGU [#1 Same State - Tryptophan B Attempt #23 (HarryS)],28.4 nM,29.4 nM,75 nM,79.2 nM,32.2 nM
AGCGACAUGCGUGAUACCAGCUACAUGAGGAUCACCCAUGUGAGUAGGAAACUACUGUGUAGCCCUUGGCAGCACAGUGCAUGUC [Exclusion - Theophylline B (Freestyle 25)],11.4 nM,,15.9 nM,,10.3 nM
AGCGGCUCGAAAGAGUCGCACUCAUGUGAAGGAGCGCCCGUAAGGGCAGGUAGGUCGCACAUGAGGAUCACCCAUGUACCUUCUA [MAT - Exclusion Arginine A - Mod of Eli - D20],87.1 nM,205 nM,255 nM,316 nM,241 nM
AGCUCGCAUCCUCAAAGCGUCAAAGACGCACGAGGACCGGUACGGCCGCCACUCGACCUGAGGAUCACCCUGGUCUAAGCGAGCA [TrypAX 9 #SwitchBubble #AlternativeMS2 #MS2Late #CuTurnoff],29.7 nM,36.2 nM,49.2 nM,48.8 nM,381 nM
AGCUCGCAUCCUCAAGCGUCAAAGACGCGUCGAGGACCGGUACGGCCGCCACUCGACAAGAGGAUCACCCUUGUCUAAGCGAGCA [TrypAX 4 #SwitchBubble #AlternativeMS2 #MS2Late #CuTurnoff],73.3 nM,195 nM,182 nM,264 nM,254 nM
AGUCUAUGGAGAGAUACCAGUGAGAGCCAUAGACAUGAGGAUCACCCAUGUGACAUGGAUCACCCUUGGCAGCUCAACGAGCUCU [#20 Same State - Theophylline B],41 nM,,106 nM,,87.1 nM
AGUUCCAGGUCGGCCGCCACUGGCGUGGCCGGUCCUCGGACUUACAUGAGGAUCACCCAUGUGAACAGGACCGGGACCGCAUGGG [Exclusion Tryptophan B GF 25],30 nM,,46 nM,48.4 nM,
AUAAAAGGGUUAUAUAGAUUUAGGUCCAGUCGAGGACCGGUACGGCCGCCACUCGUACUGAAAUACAUGAGGAUCACCCAUGUUA [JR_SSTryptoA_Sub006],16.4 nM,,25.8 nM,22.9 nM,
AUAACAUGAGGAUCACCCAUGUAAGCUGAAGGAGCGGACGAAAGUCCAGGUAGGUCGCAGCACUCCUUCAACAUGGGAGAGGGAG [(M1)-(M2)-(Arg1)-(Arg2)-(A)'-(M)'-(A)''_Design1],39.9 nM,64.2 nM,59.8 nM,72.5 nM,53.2 nM
AUAACAUGAGGAUCACCCAUGUAGAGUGAUACCAGACUACGUAAUGUCCCUUGGCAGCACAAGUAAAGUUACGAAUAUUGAUAGA [JR_SSTheophyA_Sub003],123 nM,,198 nM,,143 nM
AUAAGUAAUGUUACGUGUUUAAUUGCAGAUACCAGACUAUACGUUGUCCCUUGGCAGCUGAAUUACAUGAGGAUCACCCAUGUUG [JR_ExcTheophyA_Sub005],19.4 nM,,28.5 nM,,25.7 nM
AUAAUGGGUAUCGGAUUAUCAUGAUAUGAUACCAGAUACUUAGAUAUCCCUUGGCAGCAUGAGGACAUGAGGAUCACCCAUGUAU [#04 Exclusion-TheophyllineA],32.1 nM,,50.3 nM,,39.9 nM
AUACAUGAGGAUCACCCAUGUAUGGAUGAAGGAGCGACCAGAGGGUCAGGUAGGUCGCAUCACAUGAGGAUCACCCAUGUAGAAA [DOUBLE!!! :-D #11],20.3 nM,23.4 nM,25.2 nM,26.1 nM,24 nM
AUACAUGAGGAUCACCCAUGUCAUUCAGAAGGAGCGUCAUUUUAGACAGGUAGGUCGCUGUUAUUGGUAUUAUACUUUAUGUUUA [JR_ExcArginiA_Sub024],20.1 nM,22.9 nM,34.9 nM,24.7 nM,28.9 nM
AUACCUAUUGAGUCGUGUUUCUAUUCAGAUACCAGACUUUUCGUUGUCCCUUGGCAGCUGUUUUACAUGAGGAUCACCCAUGUUG [JR_ExcTheophyA_Sub006],14.6 nM,,18.3 nM,,15 nM
AUCCUUAAUAGGGUAAAUGGAUAAAGUGAUACCAGUCAAAUACAAGACCCUUGGCAGCACAAGGACAUGAGGAUCACCCAUGUCA [Same State Theophylline A GF21],20.9 nM,,22 nM,,21.6 nM
AUCGUACCUCAUGAUACCAGCAUGUGAUCAUAACAUGAGGAUCACCCAUGUAAUCAGUGAUGCCCUUGGCAGCGUAGUCGAUACA [Same State - Theophylline B (Freestyle 8)],76.3 nM,,161 nM,,123 nM
